In article PMC5767221 one finds drop of BRET signal with KCl 55 mM against before depolarization (soma) and drop of BRET signal with KCl 55 mM against before depolarization (spines) data, which are given here for one substance.

The assay addresses mGlu5-NanoLuc (UniProt P31424). Briefly: FRET or BRET; intermolecular BRET imaging in live hippocampal neurons expressing mGlu5-NanoLuc (donor) and Venus-Homer (acceptor); recorded for 30 min in soma and dendritic spines; control KCl 3 mM, and before and during depolarization with KCl 55 mM. (In general: Bioluminescence resonance energy transfer reports proximity on the nanometre scale.)
Chain of UniProt P31424 (P31424 21-1203): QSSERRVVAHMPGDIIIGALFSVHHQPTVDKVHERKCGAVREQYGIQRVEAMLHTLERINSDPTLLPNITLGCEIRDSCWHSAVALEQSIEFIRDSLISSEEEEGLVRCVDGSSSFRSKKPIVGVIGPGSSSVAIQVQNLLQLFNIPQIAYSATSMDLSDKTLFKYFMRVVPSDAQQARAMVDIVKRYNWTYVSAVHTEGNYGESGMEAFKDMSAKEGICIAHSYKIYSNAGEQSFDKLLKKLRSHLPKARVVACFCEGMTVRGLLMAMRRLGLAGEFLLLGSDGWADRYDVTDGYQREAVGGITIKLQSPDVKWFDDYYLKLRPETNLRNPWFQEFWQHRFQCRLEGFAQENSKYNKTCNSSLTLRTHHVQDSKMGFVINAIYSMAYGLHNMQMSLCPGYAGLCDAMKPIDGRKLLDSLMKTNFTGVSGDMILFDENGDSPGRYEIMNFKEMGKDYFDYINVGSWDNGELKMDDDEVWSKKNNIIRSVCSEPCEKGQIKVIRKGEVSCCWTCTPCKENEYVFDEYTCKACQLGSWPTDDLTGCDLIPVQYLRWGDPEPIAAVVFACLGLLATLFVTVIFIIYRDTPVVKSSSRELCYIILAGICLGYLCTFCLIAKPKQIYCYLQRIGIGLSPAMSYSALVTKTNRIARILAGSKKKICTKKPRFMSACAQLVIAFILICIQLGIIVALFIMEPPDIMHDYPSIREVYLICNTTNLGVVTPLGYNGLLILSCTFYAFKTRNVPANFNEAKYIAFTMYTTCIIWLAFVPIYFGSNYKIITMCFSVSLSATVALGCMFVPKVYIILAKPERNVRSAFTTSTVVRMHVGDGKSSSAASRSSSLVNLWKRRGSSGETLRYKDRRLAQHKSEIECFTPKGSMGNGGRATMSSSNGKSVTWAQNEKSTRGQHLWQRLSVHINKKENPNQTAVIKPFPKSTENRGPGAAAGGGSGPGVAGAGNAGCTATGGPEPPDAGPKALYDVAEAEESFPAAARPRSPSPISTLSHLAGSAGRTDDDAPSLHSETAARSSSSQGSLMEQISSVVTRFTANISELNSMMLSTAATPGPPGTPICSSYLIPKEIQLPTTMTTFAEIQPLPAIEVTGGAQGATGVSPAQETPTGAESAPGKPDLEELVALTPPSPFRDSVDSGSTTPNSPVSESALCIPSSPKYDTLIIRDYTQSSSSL

“Venus-Homer (from UniProt Q9Z214 1-366) (natural protein)” returned a drop of BRET signal with KCl 55 mM against before depolarization (soma) of 15% and a drop of BRET signal with KCl 55 mM against before depolarization (spines) of 16%.
